In test [1] the target is Protective antigen (PA), wild type, 63-kDa portion of trypsin-nicked PA (Bacillus anthracis). In words: native MS.
The target is the same in test [2]. In words: negative-stain electron microscopy.
For test [3], the target named is His6-PA: WT PA with a carboxy-terminal six histidine tag, 63-kDa form (Bacillus anthracis). In words: negative-stain electron microscopy.

As usually defined, the stoichiometry N is a count of units in the complex or per binding partner.

Where “and” joins values, the source holds several entries; their conditions need not be identical. Identical values can stand only once.

Protective antigen (PA), wild type, 63-kDa portion of trypsin-nicked PA (Bacillus anthracis), sequence (P13423 197-764 limits assumed): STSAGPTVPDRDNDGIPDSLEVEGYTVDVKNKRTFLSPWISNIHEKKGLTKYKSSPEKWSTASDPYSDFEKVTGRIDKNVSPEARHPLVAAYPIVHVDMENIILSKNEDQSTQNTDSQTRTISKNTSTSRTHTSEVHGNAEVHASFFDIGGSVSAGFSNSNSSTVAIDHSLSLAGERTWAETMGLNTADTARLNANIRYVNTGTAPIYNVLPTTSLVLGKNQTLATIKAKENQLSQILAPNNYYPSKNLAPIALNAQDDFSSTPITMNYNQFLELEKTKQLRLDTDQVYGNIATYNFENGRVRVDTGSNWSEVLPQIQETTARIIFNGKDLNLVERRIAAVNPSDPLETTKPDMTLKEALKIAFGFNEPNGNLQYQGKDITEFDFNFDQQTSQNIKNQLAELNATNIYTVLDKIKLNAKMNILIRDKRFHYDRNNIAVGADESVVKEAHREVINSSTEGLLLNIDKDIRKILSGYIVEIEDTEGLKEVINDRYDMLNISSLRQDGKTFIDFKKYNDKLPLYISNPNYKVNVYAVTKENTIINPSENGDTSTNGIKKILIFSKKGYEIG

Consider “LFN, amino-terminal domain of lethal factor (LF residues 1-263) (domain or fragment)”, for which, in test [1], the stoichiometry N (LFN per PA heptamer) turned out to be 2 and the stoichiometry N (LFN per PA tetramer) stood at 2.

In the case of “Protective antigen (PA), wild type, 63-kDa portion of trypsin-nicked PA (domain or fragment)”, the stoichiometry N in test [2] is 7 and 8.

In test [3], “His6-PA: WT PA with a carboxy-terminal six histidine tag, 63-kDa form (domain or fragment)” had a percent of oligomers that are heptamers of 74% and a percent of oligomers that are octamers of 26%.

(Values after PMC2742380.)
